{"source": "paper PMC6200766", "about": "“Fisetin targets YB-1/RSK axis independent of its effect on ERK signaling: insights from in vitro and in vivo melanoma models” (Scientific Reports, 2018)", "binders": {"B1": {"name": "YB-1 human recombinant protein with GST-tag at N-terminal (51-139 aa) (domain or fragment)", "chain": "not shown", "notes": "35 kDa including GST tag; Immobilised by amine coupling (EDC/NHS) on a CM5 chip with its GST tag; source: bought: Abnova Corporation, Taiwan; not shown: GST, N-terminal, kept"}}, "details_in_all_cases": "both partners purified", "key": {"[1]": {"molecular_target": "T1, RPS6KA1 (RSK1, 88.5 kDa) recombinant human protein, full length, HIS-tag (human, UniProt Q15418 1-735)", "T1 construct": "p90 ribosomal S6 kinase 1 (RSK1, RPS6KA1), human, full length, 88.5 kDa; source: bought: Life Technologies, Italy", "T1 sequence (Q15418 whole entry)": "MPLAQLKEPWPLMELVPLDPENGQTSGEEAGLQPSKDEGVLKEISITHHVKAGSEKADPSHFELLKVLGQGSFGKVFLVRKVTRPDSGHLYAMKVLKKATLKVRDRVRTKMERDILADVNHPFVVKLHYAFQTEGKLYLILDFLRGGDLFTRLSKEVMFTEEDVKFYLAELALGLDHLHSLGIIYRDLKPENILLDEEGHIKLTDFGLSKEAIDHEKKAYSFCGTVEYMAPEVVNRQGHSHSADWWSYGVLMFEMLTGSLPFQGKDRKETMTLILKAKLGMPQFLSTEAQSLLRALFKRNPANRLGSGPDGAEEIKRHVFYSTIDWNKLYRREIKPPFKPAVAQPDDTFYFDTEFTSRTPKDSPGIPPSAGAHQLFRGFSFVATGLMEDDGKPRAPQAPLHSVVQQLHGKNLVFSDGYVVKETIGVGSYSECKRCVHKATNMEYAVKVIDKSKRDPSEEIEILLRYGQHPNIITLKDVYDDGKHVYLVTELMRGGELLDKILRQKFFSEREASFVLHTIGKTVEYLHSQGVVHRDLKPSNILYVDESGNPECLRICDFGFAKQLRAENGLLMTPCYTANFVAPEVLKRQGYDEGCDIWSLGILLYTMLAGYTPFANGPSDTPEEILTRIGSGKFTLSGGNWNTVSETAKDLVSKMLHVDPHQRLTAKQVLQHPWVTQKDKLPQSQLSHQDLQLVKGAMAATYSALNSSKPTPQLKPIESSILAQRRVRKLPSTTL", "experiment": "SPR; Biacore T-200, 25 °C; GST-YB-1 (51-139), 60 RU, amine-coupled on a CM5 chip; RSK1 or RSK2 flowed at 100-0 nM without BSA, 30 ul/min; full kinetics; KD from ka and kd or steady state"}, "[2]": {"molecular_target": "T2, RPS6KA3 (RSK2, 86.3 kDa) recombinant human protein, full length, HIS-tag (human, UniProt P51812 1-740)", "T2 construct": "p90 ribosomal S6 kinase 2 (RSK2, RPS6KA3), human, full length, 86.3 kDa; source: bought: Life Technologies, Italy", "T2 sequence (P51812 whole entry)": "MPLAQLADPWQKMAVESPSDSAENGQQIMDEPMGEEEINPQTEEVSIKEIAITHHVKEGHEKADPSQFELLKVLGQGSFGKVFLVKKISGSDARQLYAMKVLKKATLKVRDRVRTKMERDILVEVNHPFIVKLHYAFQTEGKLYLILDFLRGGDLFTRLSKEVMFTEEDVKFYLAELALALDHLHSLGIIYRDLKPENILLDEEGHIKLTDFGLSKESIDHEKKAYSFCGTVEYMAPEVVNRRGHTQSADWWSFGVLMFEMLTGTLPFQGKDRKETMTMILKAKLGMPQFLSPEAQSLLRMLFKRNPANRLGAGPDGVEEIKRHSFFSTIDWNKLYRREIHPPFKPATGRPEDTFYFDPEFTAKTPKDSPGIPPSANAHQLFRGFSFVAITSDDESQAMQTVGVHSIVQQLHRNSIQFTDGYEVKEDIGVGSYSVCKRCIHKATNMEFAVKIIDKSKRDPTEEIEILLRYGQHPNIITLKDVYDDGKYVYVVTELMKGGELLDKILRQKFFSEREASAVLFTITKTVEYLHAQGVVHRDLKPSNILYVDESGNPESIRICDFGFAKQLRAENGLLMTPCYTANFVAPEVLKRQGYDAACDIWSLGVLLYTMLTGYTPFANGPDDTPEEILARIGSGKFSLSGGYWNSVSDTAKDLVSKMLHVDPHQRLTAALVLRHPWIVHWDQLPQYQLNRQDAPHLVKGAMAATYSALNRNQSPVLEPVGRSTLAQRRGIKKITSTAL", "experiment": "SPR; Biacore T-200, 25 °C; GST-YB-1 (51-139), 60 RU, amine-coupled on a CM5 chip; RSK1 or RSK2 flowed at 100-0 nM without BSA, 30 ul/min; full kinetics; KD from ka and kd or steady state"}, "[3]": {"molecular_target": "T2, RPS6KA3 (RSK2, 86.3 kDa) recombinant …", "experiment": "SPR; Biacore T-200, 25 °C; GST-YB-1 (51-139) amine-coupled on a CM5 chip; RSK2 flowed at 50, 25, 12.5, 6.25, 3.125, 0 nM, 30 ul/min; 10 mM HEPES pH 7.4, 150 mM NaCl, 3 mM EDTA, 0.05% P20, 0.1% BSA; full kinetics"}}, "data": [{"binder": "B1", "values": [{"measurement": "Kd", "setting": "[1]", "result": 246000, "unit": "nM"}, {"measurement": "Kd", "setting": "[2]", "result": 534, "unit": "nM"}, {"measurement": "Kd", "setting": "[3]", "result": 402, "unit": "nM"}]}]}
